From CN111138528A (INST MILITARY MEDICINE ACADEMY MILITARY SCIENCES PLA, dated 2020)

How the values were obtained:
GP 227-295 = GP 227-295 (Ebola virus (EBOV), UniProt Q05320 227-295); experiment: ELISA, truncated GP coated, 5A8 titrated (method of Example 2)
GP 158-295 = GP 158-295 (Ebola virus (EBOV), UniProt Q05320 158-295); experiment: as above
GP 33-310;463-558 = GP 33-310;463-558 (Ebola virus (EBOV), UniProt Q05320 33-310; Q05320 463-558); experiment: as above
sGP = sGP (Ebola virus (EBOV), UniProt P60170 33-324); experiment: as above
GP 95-295 = GP 95-295 (Ebola virus (EBOV), UniProt Q05320 95-295); experiment: as above
GP1 = GP1 (Ebola virus (EBOV), UniProt Q05320 33-501); experiment: as above
RESTV GP = target: T1, RESTV GP (RESTV, UniProt Q66799 34-651); experiment: ELISA, GP coated at 1 μg/mL, 5A8 in 1:3 dilutions
T1 sequence: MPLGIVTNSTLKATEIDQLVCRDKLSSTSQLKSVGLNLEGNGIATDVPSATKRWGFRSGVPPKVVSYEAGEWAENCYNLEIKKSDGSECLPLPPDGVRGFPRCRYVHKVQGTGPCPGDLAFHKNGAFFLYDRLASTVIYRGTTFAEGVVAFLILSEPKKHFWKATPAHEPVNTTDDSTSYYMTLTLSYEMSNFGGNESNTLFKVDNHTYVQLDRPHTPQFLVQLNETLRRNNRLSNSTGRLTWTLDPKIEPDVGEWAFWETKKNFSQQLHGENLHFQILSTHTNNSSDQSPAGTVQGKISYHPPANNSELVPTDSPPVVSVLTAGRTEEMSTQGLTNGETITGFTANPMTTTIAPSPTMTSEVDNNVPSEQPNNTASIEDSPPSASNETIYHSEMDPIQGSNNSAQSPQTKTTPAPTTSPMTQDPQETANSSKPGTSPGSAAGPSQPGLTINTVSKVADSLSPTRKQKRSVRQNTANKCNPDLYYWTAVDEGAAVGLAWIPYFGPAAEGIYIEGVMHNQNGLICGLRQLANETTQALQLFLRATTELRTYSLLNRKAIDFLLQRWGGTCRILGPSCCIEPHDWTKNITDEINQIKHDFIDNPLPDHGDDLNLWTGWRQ

SUDV GP = target: T2, SUDV GP (SUDV, UniProt Q7T9D9 33-650); experiment: ELISA, GP coated at 1 μg/mL, 5A8 in 1:3 dilutions
T2 sequence: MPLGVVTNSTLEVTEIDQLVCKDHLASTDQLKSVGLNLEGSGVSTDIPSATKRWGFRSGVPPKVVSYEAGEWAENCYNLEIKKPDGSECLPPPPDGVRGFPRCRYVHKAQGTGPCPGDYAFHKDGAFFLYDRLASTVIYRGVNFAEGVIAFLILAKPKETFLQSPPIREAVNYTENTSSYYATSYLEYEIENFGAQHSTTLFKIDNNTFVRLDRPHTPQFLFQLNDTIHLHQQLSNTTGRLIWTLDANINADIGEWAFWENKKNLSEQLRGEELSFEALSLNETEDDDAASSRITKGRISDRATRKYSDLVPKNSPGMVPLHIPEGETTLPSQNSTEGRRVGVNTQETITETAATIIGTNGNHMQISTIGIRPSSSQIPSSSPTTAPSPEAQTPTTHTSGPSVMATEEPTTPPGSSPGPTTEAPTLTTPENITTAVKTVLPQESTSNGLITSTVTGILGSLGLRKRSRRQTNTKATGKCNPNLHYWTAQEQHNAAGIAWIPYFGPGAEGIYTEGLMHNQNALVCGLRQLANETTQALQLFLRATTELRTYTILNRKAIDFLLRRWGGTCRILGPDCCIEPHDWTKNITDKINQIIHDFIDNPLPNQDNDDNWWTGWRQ

EBOV GP = target: T3, EBOV GP (Ebola virus (EBOV), UniProt Q05320 33-650); experiment: ELISA, GP coated at 1 μg/mL, 5A8 from 10 μg/mL in 1:3 dilutions
T3 sequence: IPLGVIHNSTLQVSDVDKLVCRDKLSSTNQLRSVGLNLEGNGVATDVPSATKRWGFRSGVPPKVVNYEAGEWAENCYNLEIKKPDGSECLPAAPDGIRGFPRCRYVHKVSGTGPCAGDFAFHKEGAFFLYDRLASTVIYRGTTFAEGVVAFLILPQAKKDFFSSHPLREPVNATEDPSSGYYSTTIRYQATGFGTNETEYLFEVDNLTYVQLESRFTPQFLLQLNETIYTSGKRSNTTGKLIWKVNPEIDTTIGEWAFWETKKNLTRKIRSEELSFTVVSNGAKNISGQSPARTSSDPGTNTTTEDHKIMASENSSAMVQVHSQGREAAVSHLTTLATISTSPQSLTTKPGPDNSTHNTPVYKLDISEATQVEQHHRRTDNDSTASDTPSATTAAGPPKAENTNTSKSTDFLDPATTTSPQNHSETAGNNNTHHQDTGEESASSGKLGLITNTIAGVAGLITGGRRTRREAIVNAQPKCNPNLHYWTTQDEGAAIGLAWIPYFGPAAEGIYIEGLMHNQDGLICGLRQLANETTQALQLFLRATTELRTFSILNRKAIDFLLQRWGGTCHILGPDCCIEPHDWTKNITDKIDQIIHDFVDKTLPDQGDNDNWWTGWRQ

B1: 单克隆抗体5A8 (antibody, V domains shown)
VH: EVQLLESGGGLVKPGGSLRLSCAASGFTFSDYYMNWIRQAPGKGLEWVSYISSSGKTIYYADSVKGRFTISRDNAKKSLYLQMNSLRAEDTAVYYCARDREIVISTTILLGSDHYAMDVWGQGTTVTVSS
VL: DIQMTQSPFTLSASVGDRVTITCRASQSINSYLNWYQQKPGKAPKLLIYSASSLQSGVPSRFSGSGSGTDFTLTISSLQPEDFAIYYCQQTYRTPYTFGQGTKVEIKT
B1 was tested, and the EC50 (GP 227-295) was 0.0126 µg/mL, the EC50 (GP 158-295) was 0.02 µg/mL and the EC50 (GP 33-310;463-558) was 4.9 ng/mL. The EC50 (sGP) was 7.5 ng/mL, the EC50 (GP 95-295) was 7.1 ng/mL and the EC50 (GP1) was 6.9 ng/mL. The binding result (RESTV GP) was “no binding (tested: 10μg/mL (highest concentration tested))”, the binding result (SUDV GP) was “no binding (tested: 10μg/mL (highest concentration tested))” and the EC50 (EBOV GP) was 0.014 µg/mL.
